Measured values from article PMC4976051 (Journal of molecular biology, 2016).

Target: T1, E. coli RecB (E. coli, UniProt P08394 1-1180)
T1 sequence (looked up): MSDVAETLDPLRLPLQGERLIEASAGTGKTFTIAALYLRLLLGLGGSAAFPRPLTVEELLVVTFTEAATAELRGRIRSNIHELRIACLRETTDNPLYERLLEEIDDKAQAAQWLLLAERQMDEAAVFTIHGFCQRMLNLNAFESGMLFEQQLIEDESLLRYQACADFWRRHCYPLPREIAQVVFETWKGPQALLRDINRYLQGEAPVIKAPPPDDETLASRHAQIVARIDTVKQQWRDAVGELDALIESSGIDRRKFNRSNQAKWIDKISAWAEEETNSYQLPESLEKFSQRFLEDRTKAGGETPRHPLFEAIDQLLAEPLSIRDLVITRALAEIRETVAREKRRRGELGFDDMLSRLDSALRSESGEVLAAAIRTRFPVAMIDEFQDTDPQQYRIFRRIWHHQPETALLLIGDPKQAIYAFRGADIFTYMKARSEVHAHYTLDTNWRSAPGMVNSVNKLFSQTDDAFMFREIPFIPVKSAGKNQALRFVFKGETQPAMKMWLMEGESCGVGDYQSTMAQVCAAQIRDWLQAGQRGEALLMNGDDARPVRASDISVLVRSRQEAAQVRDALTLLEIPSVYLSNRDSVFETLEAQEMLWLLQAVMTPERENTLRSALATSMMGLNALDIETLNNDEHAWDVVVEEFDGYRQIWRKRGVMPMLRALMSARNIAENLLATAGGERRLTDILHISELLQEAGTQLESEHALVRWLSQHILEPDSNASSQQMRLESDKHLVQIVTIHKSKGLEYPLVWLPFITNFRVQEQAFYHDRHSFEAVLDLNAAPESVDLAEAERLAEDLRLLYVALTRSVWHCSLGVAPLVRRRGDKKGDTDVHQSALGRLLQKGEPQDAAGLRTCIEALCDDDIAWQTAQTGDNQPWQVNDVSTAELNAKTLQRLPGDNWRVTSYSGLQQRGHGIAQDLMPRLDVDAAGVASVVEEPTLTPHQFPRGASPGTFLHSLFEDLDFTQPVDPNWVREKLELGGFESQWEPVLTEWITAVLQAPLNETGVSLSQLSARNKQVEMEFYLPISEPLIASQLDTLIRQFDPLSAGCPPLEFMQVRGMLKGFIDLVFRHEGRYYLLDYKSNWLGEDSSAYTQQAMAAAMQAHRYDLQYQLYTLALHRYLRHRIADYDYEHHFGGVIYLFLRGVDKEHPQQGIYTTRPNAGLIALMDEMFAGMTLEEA
Assay: reconstitution from purified subunits

B1: E. coli RecC (natural protein, UniProt P07648 1-1122, looked up)
chain: MLRVYHSNRLDVLEALMEFIVERERLDDPFEPEMILVQSTGMAQWLQMTLSQKFGIAANIDFPLPASFIWDMFVRVLPEIPKESAFNKQSMSWKLMTLLPQLLEREDFTLLRHYLTDDSDKRKLFQLSSKAADLFDQYLVYRPDWLAQWETGHLVEGLGEAQAWQAPLWKALVEYTHQLGQPRWHRANLYQRFIETLESATTCPPGLPSRVFICGISALPPVYLQALQALGKHIEIHLLFTNPCRYYWGDIKDPAYLAKLLTRQRRHSFEDRELPLFRDSENAGQLFNSDGEQDVGNPLLASWGKLGRDYIYLLSDLESSQELDAFVDVTPDNLLHNIQSDILELENRAVAGVNIEEFSRSDNKRPLDPLDSSITFHVCHSPQREVEVLHDRLLAMLEEDPTLTPRDIIVMVADIDSYSPFIQAVFGSAPADRYLPYAISDRRARQSHPVLEAFISLLSLPDSRFVSEDVLALLDVPVLAARFDITEEGLRYLRQWVNESGIRWGIDDDNVRELELPATGQHTWRFGLTRMLLGYAMESAQGEWQSVLPYDESSGLIAELVGHLASLLMQLNIWRRGLAQERPLEEWLPVCRDMLNAFFLPDAETEAAMTLIEQQWQAIIAEGLGAQYGDAVPLSLLRDELAQRLDQERISQRFLAGPVNICTLMPMRSIPFKVVCLLGMNDGVYPRQLAPLGFDLMSQKPKRGDRSRRDDDRYLFLEALISAQQKLYISYIGRSIQDNSERFPSVLVQELIDYIGQSHYLPGDEALNCDESEARVKAHLTCLHTRMPFDPQNYQPGERQSYAREWLPAASQAGKAHSEFVQPLPFTLPETVPLETLQRFWAHPVRAFFQMRLQVNFRTEDSEIPDTEPFILEGLSRYQINQQLLNALVEQDDAERLFRRFRAAGDLPYGAFGEIFWETQCQEMQQLADRVIACRQPGQSMEIDLACNGVQITGWLPQVQPDGLLRWRPSLLSVAQGMQLWLEHLVYCASGGNGESRLFLRKDGEWRFPPLAAEQALHYLSQLIEGYREGMSAPLLVLPESGGAWLKTCYDAQNDAMLDDDSTLQKARTKFLQAYEGNMMVRGEGDDIWYQRLWRQLTPETMEAIVEQSQRFLLPLFRFNQS
- binding result: binds
